The labels stand for the following.
B1: BAK1105H3 scFv (scFv, V domains shown, part only)
VH: QVQLVQSGAEVKKPGASVKVSCKASGYTFTNYGLSWVRQAPGQGLEWMGWISGLNGETLYGQEFQGRVTMTTDTSTSTAYMELRSLRSDDTAVYYCARDSSSSWARWFFDLWGRGTLVTVSS
VL: SYVLTQPPSVSVAPGKTARITCGGNIIGSKLVHWYQQKPGQAPVLVIYDDGDRPSGIPERFSGSNSGNTATLTISRVEAGDEADYYCQVWDTGSDPVVFGGGTKLTVL
modifications: scFv linker not given
B2: BAK1111D10 scFv (scFv, V domains shown, part only)
VH: QVQLVQSGAEVKKPGASVKVSCKASGYTFTNYGLSWVRQAPGQGLEWMGWIATPDGQTSYGQEFQGRVTMTTDTSTSTAYMELRSLRSDDTAVYYCARDSNSSWARWFFDLWGRGTLVTVSS
VL: SYVLTQPPSVSVAPGKTARITCGGNIIGSKLVHWYQQKPGQAPVLVIYDDGDRPSGIPERFSGSNSGNTATLTISRVEAGDEADYYCQVWDTGSDPVVFGGGTKLTVL
modifications: scFv linker not given
B3: BAK1167F4 scFv (scFv, V domains shown, part only)
VH: QVQLVQSGAEVKKPGASVKVSCKASGYTFIDTGVSWVRQAPGQGLEWMGWISANNGDTNYGQEFQGRVTMTTDTSTSTAYMELRSLRSDDTAVYYCARDSSSSWARWFFDLWGRGTLVTVSS
VL: SYVLTQPPSVSVAPGKTARITCGGNIIGSKLVHWYQQKPGQAPVLVIYDDGDRPSGIPERFSGSNSGNTATLTISRVEAGDEADYYCQVWDTGSDPVVFGGGTKLTVL
modifications: scFv linker not given
B4: BAK1185F8 scFv (scFv, V domains shown, part only)
VH: QVQLVQSGAEVKKPGASVKVSCKASGYTFTDYGLSWVRQAPGQGLEWMGWIRNIDGYTIYGQEFQGRVTMTTDTSTSTAYMELRSLRSDDTAVYYCARDSSSSWARWFFDLWGRGTLVTVSS
VL: SYVLTQPPSVSVAPGKTARITCGGNIIGSKLVHWYQQKPGQAPVLVIYDDGDRPSGIPERFSGSNSGNTATLTISRVEAGDEADYYCQVWDTGSDPVVFGGGTKLTVL
modifications: scFv linker not given
B5: BAK1184C8 scFv (scFv, V domains shown, part only)
VH: QVQLVQSGAEVKKPGASVKVSCKASGYTFTNYGLSWVRQAPGQGLEWMGWISGSNGYTSYGQEFQGRVTMTTDTSTSTAYMELRSLRSDDTAVYYCARDSSSSWARWFFDLWGRGTLVTVSS
VL: SYVLTQPPSVSVAPGKTARITCGGNIIGSKLVHWYQQKPGQAPVLVIYDDGDRPSGIPERFSGSNSGNTATLTISRVEAGDEADYYCQVWDTGSDPVVFGGGTKLTVL
modifications: scFv linker not given
B6: BAK1187B4 scFv (scFv, part only; not given: Linker, part only)
scFv, part: QVQLVQSGAEVKKPGASVKVSCKASGYTFTNYGLSWVRQAPGQGLEWMGWIDDDSGTTIYGQEFQGRVTMTTDTSTSTAYMELRSLRSDDTAVYYCARDSSSSWARWFFDLWGRGTLVTVSSSYVLTQPPSVSVAPGKTARITCGGNIIGSKLVHWYQQKPGQAPVLVIYDDGDRPSGIPERFSGSNSGNTATLTISRVEAGDEADYYCQVWDTGSDPVVFGGGTKLTVL
B7: BAK1185E1 scFv (scFv, part only; not given: Linker, part only)
scFv, part: QVQLVQSGAEVKKPGASVKVSCKASGYTFTNYGLSWVRQAPGQGLEWMGWINDATGDTQYGQEFQGRVTMTTDTSTSTAYMELRSLRSDDTAVYYCARDSSSSWARWFFDLWGRGTLVTVSSSYVLTQPPSVSVAPGKTARITCGGNIIGSKLVHWYQQKPGQAPVLVIYDDGDRPSGIPERFSGSNSGNTATLTISRVEAGDEADYYCQVWDTGSDPVVFGGGTKLTVL
B8: BAK1167F2 scFv (scFv, part only; not given: Linker, part only)
scFv, part: QVQLVQSGAEVKKPGASVKVSCKASGYTFEQTGVSWVRQAPGQGLEWMGWISANNGDTNYGQEFQGRVTMTTDTSTSTAYMELRSLRSDDTAVYYCARDSSSSWARWFFDLWGRGTLVTVSSSYVLTQPPSVSVAPGKTARITCGGNIIGSKLVHWYQQKPGQAPVLVIYDDGDRPSGIPERFSGSNSGNTATLTISRVEAGDEADYYCQVWDTGSDPVVFGGGTKLTVL
B9: BAK1166G2 scFv (scFv, part only; not given: Linker, part only)
scFv, part: QVQLVQSGAEVKKPGASVKVSCKASGYTFANTGISWVRQAPGQGLEWMGWISANNGDTNYGQEFQGRVTMTTDTSTSTAYMELRSLRSDDTAVYYCARDSSSSWARWFFDLWGRGTLVTVSSSYVLTQPPSVSVAPGKTARITCGGNIIGSKLVHWYQQKPGQAPVLVIYDDGDRPSGIPERFSGSNSGNTATLTISRVEAGDEADYYCQVWDTGSDPVVFGGGTKLTVL
B10: BAK278D6 scFv (scFv, V domains shown)
VH: EVQLVQSGAEVKKPGASVKVSCKASGYTFRNYGLSWVRQAPGQGLEWMGWISANNGDTNYGQEFQGRITMTTETSTNTAHMELRSLRSDDTAVYYCVRDSSSNWARWFFDLWGKGTMVTVSS
VL: SYVLTQPPSVSVAPGQTARIPCGGNNIGSKLVHWYQQKPGQAPVLVVYDDGDRPSGIPERFSGSNSGNTATLTISRIDAGDEADYYCQVWDTGSDPVVFGGGTKLTVL

The target in the first experiment is human IL-13 (human) (UniProt P35225). The experiment can be described thus: cell-based or functional assay.
In turn, B1 showed an IC50, TF-1 cell proliferation assay of 0.2 nM.

In turn, B2 returned an IC50, TF-1 cell proliferation assay of 0.2 nM.

Regarding B3, the IC50, TF-1 cell proliferation assay was found to be 0.2 nM.

Regarding B4, the IC50, TF-1 cell proliferation assay came to 0.2 nM.

In turn, B5 displayed an IC50, TF-1 cell proliferation assay of 0.2 nM.

In the case of B6, the IC50, TF-1 cell proliferation assay came to 0.1 nM.

B7: the IC50, TF-1 cell proliferation assay stood at 0.2 nM.

Molecule B8 displayed an IC50, TF-1 cell proliferation assay of 0.2 nM.

Consider B9, for which the IC50, TF-1 cell proliferation assay amounted to 0.2 nM.

The target of a further experiment is human IL-13 variant (Q130R), baculovirus expressed, carboxyl terminus affinity tag (human) (UniProt P35225).
Experiment: not given
With B10, the IC50 (read off the curve); TF-1 cell proliferation, 25 ng/ml human IL-13 variant (Q130R) is 80 nM.

These data come from patent US20070128192A1.
